Test system: MS2 coat protein
Experiment: apparent KD of MS2 coat protein; designed switch direction (-1 OFF switch, 1 ON switch): 1; higher = weaker reporter binding
Summary of the method: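 An oligonucleotide input, 200 uM small-molecule ligand, or no input was present during titration of SNAP-549-labelled MS2 coat protein, which was doubled from 0.7 or 1.5 nM to 3 µM. Designed RNA switches had been transcribed on Illumina chips by stalled E. coli RNA polymerase. Apparent KD per design is the median over clusters of curves fitted to normalised cluster fluorescence.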

[1] = input ligand: microRNA oligo, concentration not stated
[2] = Eterna round: R95, input ligand: FMN 200 uM
[3] = Eterna round: R95, input ligand: microRNA oligo, concentration not stated
[4] = Eterna round: R95, input ligand: none

Sequence	apparent KD of MS2 coat protein (input ligand: FMN 200 uM)	apparent KD of MS2 coat protein [1]	apparent KD of MS2 coat protein (input ligand: none)	apparent KD of MS2 coat protein [2]	apparent KD of MS2 coat protein [3]	apparent KD of MS2 coat protein [4]
CCAUAGUACAAUUUAGAUCUACAUGAGGAUCACCCAUGUACUGAGGAUAUCAGCUCGAAUAGAGCUGAGAAGGCAGAAGUACUU [SSNG3/6-A1] (Eterna round: R96, puzzle: Same State NG 3)	22.6 nM	101 nM	83.6 nM			
UGUUAACAUGAGGAUCACCCAUGUCAAAUGAAUCGAGGAUAUGGGAAGUAAGAAGAGAAACUAGAAGGCGAAGUUG [Altered State 1-3 - Jieux - Same State 1] (puzzle: Same State 1)				97.2 nM	72.9 nM	226 nM
GUCAACACAAUAGGAUAUUAGACCAUGGAGCCGUACAUGAGGAUCACCCAUGUCUUAGGUUGAUCUAAGAAGGAUUCGUGACGU [Eternabot solution 47] (Eterna round: R96, puzzle: Same State NG 2)	53.4 nM	59.1 nM	86 nM			
GCCGCGUUUCGCGCCUACAUGAGGAUCACCCAUGUAUGUAGGCAGGAUAUCGUUUGCUUUGCAAACGAGAAGGGCUGUUGUGGC [salish99_SSNG3_R04_009] (Eterna round: R96, puzzle: Same State NG 3)	79.5 nM	217 nM	227 nM			
AAUUGUUUCUGAGGAUAUCAGUAGUAUGCCAAUUGAGAAGGCAGUACAUGAGGAUCACCCAUGUUAUGGUUUGAUAGAAUGAUA [JR_SSNG1_Sub001] (Eterna round: R96, puzzle: Same State NG 1)	74.8 nM	51.2 nM	54.1 nM			
ACACGGAUACAUGAGGAUCACCCAUGUACAUGGGUUAUUACAAGCUUUUUGCUUGGGAUUAUUGGGAUUAUUAUUAA [Default title] (puzzle: Sensor for hsa-mir-208a version 2)				122 nM	156 nM	153 nM
CAUCUCCCUUUUACAUGAGGAUCACCCAUGUUUUUAUAAUGAGAGGAUAUCGUAUUUAGAAACAUCGAGAAGGCUCAAUUGUAU [JR_SSNG3_Sub071] (Eterna round: R96, puzzle: Same State NG 3)	131 nM	93 nM	153 nM			
GUGGCACAUGAGGAUCACCCAUGUAGGUAGAACAUAGGAUAUCACCAACAAAAUACCUGGUGAGAAGGAUGAUGCC [Zaesleer] (puzzle: Same State 1)					143 nM	
GCUAGAAUAAAUGCCUACAUGAGGAUCACCCAUGUAUGUAGGCAGGAUAUCGUAUGCAAAGCAUACGAGAAGGGCCUUACUAGC [Mat - Same State NG 3 - JL Mod - D30] (Eterna round: R96, puzzle: Same State NG 3)	22.7 nM	55.4 nM	85.2 nM			
GCUAGAAAUAAUGCCAACAUGAGGAUCACCCAUGUAUGUUGGCAGGAUAUCGUUUGCAAAGCAAACGAGAAGGGCUAAACUAGC [Mat - Same State NG 3 - JL Mod - D8] (Eterna round: R96, puzzle: Same State NG 3)	236 nM	237 nM	338 nM			
GGAAAGAGGUUAGGAUAUGCAUGUCUGGGACAUGAGGAUCACCCAUGUAAUAGAAGAAAUCUACAGUAGAAGGGACAAGGAAGG [AK SSNG2-V2-7] (Eterna round: R96, puzzle: Same State NG 2)	89.9 nM	62.7 nM	75.2 nM			
AUUUUUAGUGCAGGAUAUGAUUAACAUGAGGAUCACCCAUGUGGUGUUGUGAGUAAGGAGAGUGAUCAGAAGGGCAUUUUUUUU [JMF's solution 92] (Eterna round: R96, puzzle: Same State NG 2)	1020 nM	452 nM	456 nM			
AAGGUCAAGAUAGGAUAUGUUUCAUGAUAGAUAACAGAAGGAUCUAGAACAUGAGGAUCACCCAUGUGGCACAUAGAGUGGUGA [Default title] (Eterna round: R96, puzzle: Same State NG 1)		284 nM				
ACAUGAGAGUUAGGAUAUCUUGUACCUACAUGUGACAUGAGGAUCACCCAUGUGGUAAGUAUGAGGGAGAAGGAACAGAUAUGU [Equivalence 43 - Jieux - Same State NG 2] (Eterna round: R96, puzzle: Same State NG 2)		27.3 nM				
GUACUACAUGAGGAUCACCCAUGUACAAAAGUACGAGGAUAUGCAUGGACGAAAGUUGGUGCAGAAGGCGUAGUAC [Pin2Pin #3] (puzzle: Same State 1)				20.2 nM	25.9 nM	24 nM
UUAACAUGAGGAUCACCCAUGUAUAGGGAGUUUGCAAUUUGACAGGAUAUUGAAGAUGUAGAUAGCAAGAAGGGUCGGUAGUCU [JR_SSNG3_Sub004] (Eterna round: R96, puzzle: Same State NG 3)	46.1 nM	32.4 nM	43.9 nM			
UCCUUGUGGGUAGGAUAUUUAGGAUAUGCGGAAGACUAAGUCUGUAGGUCACCUAACGCAGAAGGAGAGAAGGACCCUUCAGCA [pwkr ssNG2 2FMN + F9.32] (Eterna round: R96, puzzle: Same State NG 2)	284 nM	87.9 nM	309 nM			
GGUAGGUUACUACCAAACAUGAGGAUCACCCAUGUAGGUGGGAAGGAUAUGGUACCUUUUAGGUACCAGAAGGUCCAUACAAUU [NGss mod of JL's mod of Fisker] (Eterna round: R96, puzzle: Same State NG 3)	318 nM	154 nM	203 nM			
GCUCGACGUAUUGUCUACAUGAGGAUCACCCAUGUAGGUGCGGAGGAUAUUUACGUGUUUCAUGUAGAGAAGGUCGUGUCGAGC [SameState NG3 #94] (Eterna round: R96, puzzle: Same State NG 3)	27.8 nM	166 nM	185 nM			
CGGGACAUGAGGAUCACCCAUGUGCCGAAAGGCACAAGAACGCAGGAUAUAGGGCAAAGACAGCCCUAGAAGGGUGACCUUGUG [Tiesralabe] (Eterna round: R96, puzzle: Same State NG 3)	197 nM	21.3 nM	117 nM			
CAGCGUACCGGAGGAUAUUGUGGAUACGACCAACAUGAGGAUCACCCAUGUGGGACUAGUCAAAUCAAGAAGGUUGGACCGUCA [Eternabot solution 44] (Eterna round: R96, puzzle: Same State NG 2)	26.2 nM	25.6 nM	33.3 nM			
GUAGCAUACCGAGGAUAUUCAUAUACAUGAGGAUCACCCAUGUUAAUAUAGGCCAAAAGGCCUUGGGAGAAGGCGGAAUGCUAC [Xeonanis - 20 Mod11] (Eterna round: R96, puzzle: Same State NG 2)	9.01 nM	9.83 nM	13.3 nM			
GGAGCCAAGGCAGGAUAUUCAUAUUAAUAACAUGAGGAUCACCCAUGUAAGGCCAGAAGGCCUUGGGAGAAGGGCCAUGGCUCG [Xeonanis - 13 mod2] (Eterna round: R96, puzzle: Same State NG 2)	21.4 nM	70.4 nM	106 nM			
AAUUUAAUACAUGAGGAUCACCCAUGUAAAUUAAUUAAGAUCUAGGAUAUCAGCUCGUUUAGAGCUGAGAAGGAGAUCACAUGU [SSNG3/19-B3] (Eterna round: R96, puzzle: Same State NG 3)		12.5 nM				
AAGAAACAUGAGGAUCACCCAUGUGUAAAUAUGGGAGGAUAUACAAGGACGUAAGUCAAGGUAGAAGGCCUAAGAA [Mat - Same State 1 - Meechl mod - D137] (Eterna round: R96, puzzle: Same State 1)	31 nM	155 nM	234 nM			
AUUUAACAAGCUUUUUGCUCGUCUUAUAAACAUGAGGAUCACCCAUGUAAUAGCGUGAGAGUAAAUAAAUUAAUAAU [JMF 97] (puzzle: Sensor for hsa-mir-208a)				14.4 nM	46.1 nM	12.2 nM
AAAAUGGUAUGUUACAUGAGGAUCACCCAUGUACUCUAAUCUGAGGAUAUGGGAAUGAAGAAGAACCAGAAGGCAGACAUCCAA [AK SSNG3-V2-23] (Eterna round: R96, puzzle: Same State NG 3)	258 nM	91.8 nM	104 nM			
GUUACAUGAGGAUCACCCAUGUAUGUGUGGGAGUAAGUGUCUUAGGAUAUCUAGAAUUUAAUUUAAGAGAAGGAAGAUUGUUGU [JMF's solution 49] (Eterna round: R96, puzzle: Same State NG 3)	104 nM	61 nM	83 nM			
GGAGCCGGCACCGAGGAUAUUCAUAUUAAAACAUGAGGAUCACCCAUGUGGGCCAGAAGGCCUUGGGAGAAGGCGGAUCGGCUCG [Xeonanis - 1] (Eterna round: R96, puzzle: Same State 2)	18.6 nM	141 nM	314 nM			
GUAUAACAUGAGGAUCACCCAUGUCAUCUAAGUCGAGGAUAUGGGCAAAUAAUAUAAGAACCAGAAGGCGAAUAUG [Mat - Same State 1 - Mod of UCT - D35] (puzzle: Same State 1)				61.8 nM	122 nM	359 nM

Source: the supplement of paper PMC9170038
